Experimental findings from patent US20220364069A1, “METHOD FOR THE PRODUCTION OF AN ENZYMATIC COMPOSITION COMPRISING A RECOMBINANT ENDOPEPTIDASE” (NEMYSIS LIMITED, priority 2019, published 2022) are described below.

Series [1] in a line: Activity of culture supernatant toward sucAAPF-AMC at various pH. Format: biochemical. To be noted: recombinant E40 culture supernatant. The protocol:
FIG. 1. Activity of Actinoallomurus A8 culture supernatant fraction containing the native E40. A: relative activity toward the substrate sucAlaAlaProPhe-AMC (sucAAPF-AMC) at various pH values (the optimum —100% activity— is at pH 5). B: Gliadin digestion after 2 hours of incubation at 37° C., pH 3. Gel stained with Coomassie R250 brilliant blue; Lane 1: gliadin alone, lane 2: gliadin+E40-containing supernatant fraction.
FIG. 3. Recombinant E40 (SEQ ID NO: 2) obtained by S. lividans TK24/p1J86/e40 submerged fermentation, at flask scale (panels A-C) or in a 15 L bioreactor, followed by purification (panels D-E). A: activity toward the substrate sucAAPF-AMC at pH 5 of supernatant samples taken at different fermentation times (♦72, ▴96, ●168, ▪192 fermentation hours) from the producing S. lividans TK24/p1J86/E40 (E40, continuous line) and absence of activity of supernatant samples taken from the pIJ86-empty control strain (ctr, dashed lines). Activity is shown as relative fluorescent units (rfu, Y axis) produced in time (X axis). […] D: profile of an enzyme preparation comprising recombinant E40 purified from the 15 L fermentation; lane 1: final enzyme preparation comprising recombinant E40 stained with Coomassie (the arrow indicates recombinant E40), lane 2: zymography as in C, lane 3: band of gelatin hydrolysis after 2 hours of digestion at 37° C. and pH 5, visualized after Coomassie staining of the gelatin substrate. E: relative activity (%) of recombinant E40 in the purified enzyme preparation at different pH values (from 2 to 8), evaluated with the substrate suc-Ala-Ala-Pro-Phe-pNA.
As well as native E40, recombinant E40 was active in the pH range 3-6, with an optimum at pH 5 (FIG. 3, panel B).

For another series, the system named is gliadin. Description: Digestion of whole gliadin monitored by RP-HPLC. Format: biochemical, Triticum aestivum. To be noted: pH 4, 37° C., 30 min digestion. The protocol: The ability of E40 to hydrolyze harmful peptides in whole gliadin proteins was assessed by HPLC analysis (FIG. 6). Gliadin was extracted from whole flour of Triticum aestivum (Sagittario cultivar) according to Mamone et al^4. Gliadin (1 mg) was dissolved in 1 ml of 0.1 M ammonium acetate pH 4 and incubated with E40 enzymes (enzyme:substrate, 1:20), at 37° C. for different time points (0, 15, 30, 60, 120, 240 minutes). The enzymatic hydrolysis was stopped by boiling samples for 5 minutes. Samples were lyophilized and stored at −40° C. until further chemical analysis.
SDS-PAGE was performed on a Tetra-cell Mini-PROTEAN system (Bio-Rad, Milan, Italy). Digested gliadin samples were dissolved in Laemli buffer (0.125 M Tris-HCl pH 6.8, 5% SDS, 20% glycerol, 0.02% bromophenol blue) and loaded onto precast 12% acrylamide gel (Bio-Rad). Electrophoresis was carried out under non-reducing conditions, omitting β-mercaptoethanol in the Laemli buffer. Protein bands were visualized with silver blue (Coomassie Brilliant Blue G-250) and digitalized using a LABScan scanner (Amersham Bioscience/GE Healthcare, Uppsala, Sweden). RP-HPLC was carried out on a RP-HPLC using an HP 1100 Agilent Technology modular system (Palo Alto, Calif., USA). […] Eluent A was 0.1% TFA (v/v) in Milli-Q water, eluent B was 0.1% TFA (v/v) in acetonitrile. […] The column effluent was monitored at 220 and 280 nm with an UV-Vis detector. […]

Series [2] has as its system gliadin (QPQLPY sequence). Put plainly: Gluten content of gliadin digests by Elisa-G12. It counts as biochemical, wheat. On the procedure:
Next it has been evaluated whether recombinant E40 enzymatic activity efficiently neutralizes: i) the capacity of gluten proteins to bind G12 antibodies, and ii) the stimulation of a T-cell-mediated immune response, measured by IFN-γ release. To this purpose, gliadin proteins were suspended in 1 ml of 0.1M ammonium acetate and digested with E40 alone, or with E40 co-incubated with the gastrointestinal proteases, pepsin and trypsin/chymotrypsin, at different pHs and time points, as detailed in Table 1.
All enzymes were added in w/w ratio 1:20 (enzyme:protein) and incubated at 37° C., at indicated pH and incubation time. E40/pepsin/chymotrypsin-digested gliadins were deamidated by tTGase (Sigma Aldrich), as previously described^4. Briefly, the enzymatic gliadin digests (500 μg/ml) were incubated with 2 U of guinea pig tTG (T-5398, Sigma, St. Louis, Mo., USA) at 37° C. for 2 hours in PBS with 1 mmol/L CaCl2.
To estimate the effect of E40 digestion on the immunological potential of wheat, gluten content of samples A-L was determined by monoclonal antibodies specific for QPQLPY sequence (Elisa-G12)^10.

B1: E40: Actinoallomurus endopeptidase with glutenase activity, sequence comprising SEQ ID NO: 1; recombinant histidine-tagged form SEQ ID NO: 2 from S. lividans (protein)
chain: AAPSGLSPANLQSAYKLPSSTAGSGQTVAIVDAYDAPTAEADLNVYRSQFGLGACTTANGCFKKVDQNGGTSYPRKDGGWAQEISLDLDMVSAVCPNCKIVLVEAKTNSFANLGTAENTAASLANVISNSYGGSDASDASYGSYYNHPGKAITVSSGDAGYGVEYPASSHYVTAVGGTSLRTASTSRGWSETAWSGAGSGCSAYNTALSGQSGLTGCSRRAVADVSAVADPATGVAVYDSTAYQGQSGWMVFGGTSVAAPIIGGVYGLAANAASIDNNYPYAHTSSLFDVTSGSNGTCTTTKWCTAGTGWDGPTGLGTPNGTGAFGHHHHHH
modifications: Actinoallomurus
For B1, the “pH range of activity” value in series [1] was 3-6. The “pH optimum of relative activity” value in series [1] (168 hours of fermentation, sucAAPF-AMC) is listed as 5. For the same molecule, the “peaks assigned to gliadins after 30 min” value in the series with gliadin is “markedly reduced”. In addition, the “gluten content (Elisa-G12)” value in series [2] (sample A: E40 (1 h) (pH 4)) is given as 1.72 ppm (ng/mL); in series [2] (sample B: E40 (2 h) (pH 4)), 2.26 ppm (ng/mL); in series [2] (sample C: E40 + Pepsin (1 h) (pH 4)), 5.23 ppm (ng/mL); in series [2] (sample D: E40 + Pepsin (2 h) (pH 4)) it was 5.42 ppm (ng/mL); in series [2] (sample E: E40 + Pepsin (2 h) (pH 4), Trypsin + Chymotrypsin (2 h) (pH 6)) it was 4.09 ppm (ng/mL); in series [2] (sample F: E40 + Pepsin (2 h) (pH 4), Trypsin + Chymotrypsin (4 h) (pH 6)), 2.68 ppm (ng/mL). For the same molecule, the “gluten content (Elisa-G12)” value is 1.68 ppm (ng/mL) in series [2] (sample G: E40 + Pepsin (1 h) (pH 4), Trypsin + Chymotrypsin (2 h) (pH 6)) and 2.05 ppm (ng/mL) in series [2] (sample H: E40 + Pepsin (1 h) (pH 4), Trypsin + Chymotrypsin (4 h) (pH 6)). In addition, the “gluten content of E40 digested samples” value in series [2] (samples from A to H) is listed as “below 20 ppm”.
